From the domain aggregation screens of Martell et al. (2025) come the findings set out here.

This data set is described as follows: soluble fraction after stress (log2 fold change); higher = more stays soluble; pooled small domains, quantitative proteomics. The conditions noted are these: stress: 50 degC. The essentials:
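Pooled custom libraries of small protein domains were measured in a high-throughput format, with quantitative proteomics as the read-out. Each library was stressed at 50°C. Aggregation propensity is given as the base-two logarithm of the fold change in how much of each protein stays soluble after the stress. Higher values mean a larger share of the protein remains in solution.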
Take “HMKNNAIAPDQVVSLLKNEVNYNDDGRIEILDNNKNIRYNSKGELLTIEERVNEFLDANPHFRK”: the “soluble fraction (log2)” value is -0.119.

With “HMLEKVLDNHIHKLRLQHKISQQELADAIGVSRKTISTVETGRFTPSVVIALKIAAHFSVSVEQVFTL”, the “soluble fraction (log2)” value is -0.964.

As to “HMVQDDLRELEGISTELLAKLADAGITNRDDLADLAIDELVAITGQSEDDAKALIMKAREHWFAGDA”, the “soluble fraction (log2)” value is -0.0273.

For “HMNNLLEDIKARLMAQAEAGGHIDTETELAEHFGVTRYRIRKELDLLSQMGLLRRQPKNGIEVLTV”, the “soluble fraction (log2)” value was -0.106.

Consider “HMSSIDLTARSGRAALKHRLSLLGYEFSKIELETLYVRFIELADEKKLLHDEDLIELVKEKN”, for which the “soluble fraction (log2)” value was -1.37.

Consider “HMNNVDIMGRMVYDDQHREVINFGKYKGVLVTEVLKKDPGYFSWIQQGDFPSDMKRIMMAIKLRM”, for which the “soluble fraction (log2)” value was -2.3.

“HMDEQVETLKNLISELPKEQLEVLVMRHYEDLSFKEISEKTGVSINTALGRMRYALINIRKLMKENN”: the “soluble fraction (log2)” value was -0.223.

As for “HMPGMLVVYVTGAVRQPGRMVTLAAGSRVSDAIDAAGGLADDADAQALNLSARLNDGDLVHVPSALD”, the “soluble fraction (log2)” value was 0.0161.

Regarding “HMLSDLTPGDLVVHATHGIGRFLGIRKLELEGMTKDYITIQYRGNENLYVPVTQMDLVSRYI”, the “soluble fraction (log2)” value is -0.292.

For “HMPFSLHGVNEGSRNDNAARIAGYLISKNLNLDFVRIFLHNWNRDNKPPLPQQEIDSVVDNVKKTHDRKN”, the “soluble fraction (log2)” value is -0.828.

In the case of “HMQNVKIKAEVKGEVISPGVYELDEESRIQDLIDASGGFSDKAYYDNINLSMKLKDEMVLVVYDKDKI”, the “soluble fraction (log2)” value was -0.163.

“HMSFGWETLEGKEGVTDTDLHPSGWVKVGDEKIFVVSQGEFLGKGTDIVVVSVDGNRVVVKELI”: the “soluble fraction (log2)” value is -0.694.

Take “HMSMPDERMLTSWMMARVKAAGKTMTRDAWNEFFERSNDSMDHMDMEMEKLLSYVYDKDGITLEDVEA”: the “soluble fraction (log2)” value is -0.394.

As for “HMIINFDAIKLTTELNKYKRHKAIPNTFFDGTYTILDVRELYNDLTPKAQKIADELIEHYNVDVK”, the “soluble fraction (log2)” value is -1.88.

Regarding “HMSVEVADITRAYYEGVGFEWWIRSVRLDPNELIVDNDDEGKLYRVPFEINGEEVTFGDPVEVKIRYE”, the “soluble fraction (log2)” value is -0.541.

On to “HMETISEIWRLIDGLDEIYRVPLTMYYRSNRSVREIAETLGLSARTVETRIYRARRMIREKWSN”, for which the “soluble fraction (log2)” value is -2.23.

As for “HMAPAPYLVKVTANKLNIRSGPGTNYKIQGAITDKGTYTIVDTQGRWGKLKSGAGWIYLNYTKK”, the “soluble fraction (log2)” value was -1.9.

In the case of “HMQSTVSTHQKTLALDTAQSGIPVFPVSSTHKRPLTDHGYKDATADADAVRKIWQQFPSAFV”, the “soluble fraction (log2)” value is 0.0922.

Take “HMEYQSLVLDFLEQGDFNAEKLKDYQRAFAKQNGMQTLPSKSQILQAYFQLVEEKKINKNSDFELLLRKR”: the “soluble fraction (log2)” value amounted to 0.0447.

For the sequence “HMAVFRVGDKVKSMEGMIGEVRGINGRLIQVATPYGLRDYYPHQITKVENPLAAAPAPLNEEA”, the “soluble fraction (log2)” value turned out to be 0.269.

Consider “HMAEIIVHEINRHLGESDEPVEFPEERREEAVAELLKNFHNDDAFRKMDDGKYEVALDGEAVREAARSLLA”, for which the “soluble fraction (log2)” value was 0.207.

In the case of “HMGLNELQVKLNEAMQRLSLKHRTVVVMHDIEGIPHDEIAKIVGVSVGTIRSRLFYARRQLQADLGEY”, the “soluble fraction (log2)” value was -2.57.

For the sequence “HMVAPNSEATTKLIIEKTKYANESPAILMGFKATATMLMAKHVVLPTSKYAYFNEGRALLEKAIK”, the “soluble fraction (log2)” value was -0.0203.

In the case of “HMKGLDRATNKALLLKHIIDNGSTGTRFSELRQVLPSLTRGSISSLLIELRSEGKIHSIGVTRNARWYPTE”, the “soluble fraction (log2)” value was -1.07.

As for “HMIAWNFDTMKESLSEMERVDYQEFIKAFLSLELSISDRTILNQVYQDYMDEDDLSLISDELRV”, the “soluble fraction (log2)” value stood at 0.0819.

On to “HMLSAGETYTLGYLKASDGILFTAADGSEQTVMQRVQVRLYDNGDGTYTARLADDIAYSAVVTEDMIDK”, for which the “soluble fraction (log2)” value was -0.116.

“HMSTFKSYRGKITASSGVNIRTGAGTNYNKNGALTYNSVVTIVDEKKVSGTTWGKLADGRGWISLDYLKK”: the “soluble fraction (log2)” value was -0.554.

In the case of “HMGGGTPEERLATLAAIAERQEMLLERLGPNNPLVSLGQYSRTLSRMVQLAGFKDASQYFNELPLDFQMPE”, the “soluble fraction (log2)” value is -0.212.

Take “HMQNKYIIKQGNSGELVEVLQELLNLKQDGVFGPQTKKAVIAFQQKHKLVADGIVGPMSWRKLNFNPEELF”: the “soluble fraction (log2)” value was -2.13.

In the case of “HMTATSKKAAWDEVNKIFPTDYERSAAESERAGYAIFRSTAEGVNAWISDLGDRLEINLPDGKTVNIWIEE”, the “soluble fraction (log2)” value is -0.282.

Consider “HMRNKTVKEVLDYIEKNSEFIFFYYSKAIDTKRIVSLSVKDQPITVILDQLFKNTDVLYEIKDRQISLKRE”, for which the “soluble fraction (log2)” value is 0.277.

On to “HMNEGETLYRLRAGDGRARLDKFLAAALPDISRTRFKGLIESGHVRVGGETITEPAYRVKSEAEVELTVPE”, for which the “soluble fraction (log2)” value was 0.0139.

For “HMYPFSEETLKEKIREYLKTNRSINRRVLEREFYIRKQTALNWLNRLVDSGFLIKEGVRNSPVYFLAE”, the “soluble fraction (log2)” value was -0.691.

On to “HMRTPTGVQAYLSSGLIKGIGEKTAAAIVDKFGTDALSVIETDPERLLEIPGITPNKLREILESYNQH”, for which the “soluble fraction (log2)” value stood at 0.141.

On to “HMLIPADETEAKVLSVLSREPLHVDEIRNQAGLPIEKISATLALMELKGMVRQVGGMNYVSV”, for which the “soluble fraction (log2)” value worked out at 0.122.

With “HMDIEITIPPEAKELDVSKILISGNIITDEQEFLDYLKQNNVAAFKDGNYKLNKNMTTEEIVNQIK”, the “soluble fraction (log2)” value turned out to be 0.498.

Consider “HMSSIRDVVPEGLLSDREKLVLVLAFDRDLDGPDMARTLGISANTVRVLKARALKKLRQAGIQP”, for which the “soluble fraction (log2)” value was -0.957.

With “HMATVNIGNLTFTHKGDYASGTTYAKNDVVYYSTNGNAYIAKQATQGNAPTSTAHWDVFAAGSGG”, the “soluble fraction (log2)” value is -0.161.

Consider “HMLQQKESAALGERLLNQALATLKVEPDAISWDRWEALAKEYGAKSQLDILADIGLGKRLSFVVAQALTKV”, for which the “soluble fraction (log2)” value was -0.535.

Consider “HMDDLSPEENKVIGAQVREELARRRLSRQHLADKAKISLSTLEKALTGTRPFTLASVVRIEEALQLQLRK”, for which the “soluble fraction (log2)” value is -0.484.

Take “HMKRLPAQMGGGDGVLRVPGLNNFVYVTIADKTLPAFNNRVPPKKGLRIWVGYSPEEPNLFQVLSTRTD”: the “soluble fraction (log2)” value is -0.576.

For “HMPEPMKLSDLPPELWQRVSDLFDEVIDLPETDRIPYIRNLWGSEPLVAKELMALLVAAANVD”, the “soluble fraction (log2)” value is -0.274.

Regarding “HMRSFGTLRRLPSGRYQASYAGPDLRRHAAPTTFETKLDAEGWLRDEHRMIERDEWTAPAARSQLK”, the “soluble fraction (log2)” value came out at 0.214.

Regarding “HMGTQIKSPMPGTILDVRVNVGDTVKEGDILMILEAMKMENEILAPVSGKVAAIQVSKGTAVNSGDLLAVL”, the “soluble fraction (log2)” value came to 0.224.

As for “HMRLSESLLDDIPGIGAARKRALLQSFGSVRKLRHADAEEIAAKVPGIGLNFAEKIVEALRKK”, the “soluble fraction (log2)” value is 0.205.

As for “HMQLASILDDIPGIGKKRKENLLTHFGSFSKIQSADIDALAEVPGISRDLAETIHTYLKTHQ”, the “soluble fraction (log2)” value turned out to be 0.0967.

On to “HMAVGVFQKEDGYWGYRFSIIVDGKTIARRKFTDENGSKLRTKSEAVKARAAAMVAARMERVS”, for which the “soluble fraction (log2)” value is -2.96.

As for “HMAADWTAIKLAYVNGGMSMRELAQRFHVGAAGLMKRAAKEGWEAERQQNSAKVSNAAQMLIN”, the “soluble fraction (log2)” value was determined as 0.33.

On to “HMDVSVPDVTGTRLDRAQSLLEAQGLTLGKVEEFFHATEPAGIVYDQEPRPGTRVDEGTAISVSVSKGPEA”, for which the “soluble fraction (log2)” value was determined as 0.0552.

Turning to “HMETVRHFRLDWSQAADRLDKVLASLMNDVSRARIQEWIRLGAVSVNGEILTDVRAKVAGGDAIDVTPQTA”, the “soluble fraction (log2)” value was -0.0893.

On to “HMSDKPIFIDTAGIAALSAIGFSKYQATIIFNYIKKGGAIYTVKDLAKIYSIDQKTIDLTQSKIIFS”, for which the “soluble fraction (log2)” value is -0.0111.

With “HMGLSARIAQRIHGLRTAQRMSLEALAARSGVSRSMISLIERNEASPTAVVLEKIATGLNVVLAALFDTP”, the “soluble fraction (log2)” value was -1.29.

On to “HMSDTVDITKLGIAGKTKEAAEALLKENGFSVESKEENSDTIEKGKVISYSPTKPKNGDRITLIVSSGKK”, for which the “soluble fraction (log2)” value amounted to 0.0915.

For “HMNSSTYIVTFKVDGEEDIVETYQWGDRIIVPEVEAKDDYVFIGWDAQIPEFMPERNLEFTAI”, the “soluble fraction (log2)” value is -1.14.

Consider “HMVGDMLTQKDSEGLTAYLYQQGIISQREMLLLNGILKDRVLTGMEKGQRDSVRASMVQHLLAMLNMM”, for which the “soluble fraction (log2)” value is -0.848.

For the sequence “HMEELTDSELNNLYRELFIARSNASDGVGIIEQKTIKGITYRLSNDNNYLIKELGNKEYIYKNGVWEEYT”, the “soluble fraction (log2)” value came out at 0.0711.

Take “HMATPKYMELVRWINEQIESKNLVPGQKMYSENTLKEMFGVSRQTVRHAIGVLENEGVIRRIQGSGTYIN”: the “soluble fraction (log2)” value was -0.829.

Regarding “HMDSTLTNEIYNELYRAITHQELKPGQNLTLTMLKKQFNVSHTPIREALTRLSADGLVTYHPNKGMKVT”, the “soluble fraction (log2)” value is -0.274.

With “HMKTITLDEAQEIALAEVDGKVTRAVEETDDGRSYYEFDIITNDQKHELEVDASSGKITKNEIDEDYVPS”, the “soluble fraction (log2)” value turned out to be 0.171.

On to “HMDEEAIELTQEVMKLPPKQREVILLYYYHGLTGKEIAKALGISGAAVSKRLKQAKNQLHFALK”, for which the “soluble fraction (log2)” value was -0.0921.

For the sequence “HMIMMTLGEKIRSIRKAKGMTQQELAEKLNTTKQTIGKYEKGIVTNLPLFRINELARALSTTPAYLTGW”, the “soluble fraction (log2)” value was -1.41.

For the sequence “HMEDVDLFTKAMAALPNRYRDILLLRYSHGYTVEEISDILSMKPENVKKTIQRARKKLGEILEAEG”, the “soluble fraction (log2)” value is -0.654.

In the case of “HMQRSVEDVFVQLRNGMDTYDMTQIEDALRILHGMELSTAQRDLLDKVQEAYNDLEYETGAALLAGFERIK”, the “soluble fraction (log2)” value stood at 0.0317.

As for “HMREGIQLGDPVRVIRDPLFGKIGAVSGLPSELRAIPTESEVRVLEVRFPDGTTTVVPRANIEVIEG”, the “soluble fraction (log2)” value amounted to 0.364.

For the sequence “HMQNSMTTTPDVVGKTGTFAEQMLKAANLNVQFAGDSSGKVVAQDVEAGTSAAYGTIITLTMDS”, the “soluble fraction (log2)” value amounted to 0.14.

Turning to “HMETAVMPDVMKLDSTTAIQALKDKGFATIETYEVKSDRPAGVVVRQSETADSVVALSKEILLGVSNGADY”, the “soluble fraction (log2)” value was found to be 0.304.

With “HMQKTIDWSQVDKEQYLSAMERSPVNDLEIKAILAKALTSDINNRELFMKGLDHSYYFEGYQLFKSE”, the “soluble fraction (log2)” value is -0.281.

As for “HMSGILINGELYKPGEQMSLKQRLSIQARIQMQGEDTVKPEMLKDFYNSGGPLSKEESSEYMKSQN”, the “soluble fraction (log2)” value was -0.153.

For the sequence “HMGSEGVKVEDTIGMSEAEATATLGKSGFVVNKTESHDPYIKAGNVITQSPAAGSKAPKGTTVTLTISLGP”, the “soluble fraction (log2)” value was determined as 0.131.
